The record followed here is US20160168210A1, “DERIVATIVES OF COLLAGEN-BINDING HAIRPIN PEPTIDES” (NATIONAL RESEARCH COUNCIL OF CANADA, priority 2012, published 2016).

Entries after “also recorded” stand apart in the source; their conditions may differ. Where no end group is shown, it is not given here.

Assay [1] addresses rat-tail collagen type I (Rattus norvegicus, UniProt P02454+P02466). The experiment in a line: Collagen binding/responsiveness of peptides by proton NMR and H-15N HSQC spectroscopy. Details: rat-tail collagen type I (at 4 mg/ml in 0.02 N acetic acid); purchased BD Bioscience; host or cells: rat tail (tissue-derived). The following applies: for response to / binding of collagen (NMR spectral perturbations): peptide free in solution vs in the presence of collagen; for NMR perturbations after collagen gelation (polymerization); reversibility of collagen binding: before vs after collagen gelation. The protocol: Rat collagen hydrogels were prepared using rat-tail collagen type I (at 4 mg/ml in 0.02 N acetic acid) from BD Bioscience. A volume of 200 μL of the concentrated collagen solution was mixed with an equal volume of a buffer solution that was 400 mM in Tris-HCl and 400 mM in NaCl with a pH of 7.6 and with 50 μL of deuterated water (D2O). The sample mixture was transferred to an NMR tube followed by gentle mixing under agitation using a Thermolyne™ Max Mix-II apparatus. The NMR tube containing the collagen solution was placed within the RF probe housed in a 500 MHz super-conducting magnet (Bruker Avance-500 NMR spectrometer). The probe and sample bulk temperature was kept at 277 K for 3 hours and then elevated to 310 K at a rate of 1 degree/10 min to enable fibril alignment during a slow process of collagen gelation under the influence of the magnetic field (Ma 2008). The degree of fibril alignment of the collagen hydrogels was determined by use of deuterium NMR spectroscopy of the added D2O as described (Ma 2008). […]
Randomly-deposited collagen (hydrogel) matrix was prepared following the same procedure as above for partially aligned hydrogels, except that the RF probe and the NMR tube (or test tubes) containing the collagen solution were placed outside the magnetic field. Peptides containing collagen-binding hairpins were introduced into the hydrogels in two ways, the first with the collagen stock solution diluted (50:50 in volume ratio) by the buffer of 400 mM in Tris-HCl and 400 mM in NaCl at pH 7.6 containing the peptides of interest (i.e. for FIGS. 1A & 1D), which gelates in the presence of the added peptide. Alternatively, peptides in an appropriate buffer were introduced to the top of the hydrogel matrix (i.e. for FIGS. 1B & 1C) preformed in the NMR tube (or test tube) following the procedures described above. The behavior of the peptides in the hydrogels was followed by use of NMR H-^15N HSQC spectra for ^15N-labelled peptides (FIG. 1) and/or by use of one-dimensional proton NMR spectroscopy (FIG. 2).
Deuterium NMR spectroscopy studies of collagen responsiveness (and/or binding) for each peptide were carried out using a volume of (400-X) μL of a peptide dissolved in pure water mixed with 50 μL of a 10×PBS (phosphate-buffered saline) supplemented by sodium phosphate to a final concentration of 50 mM, with 50 μL of deuterated water (D2O) to form the reference sample (where X=0), or the peptide-collagen complex with X μL of rat-tail collagen type I (at 3.6 to 4 mg/ml in 0.02 N acetic acid from BD Bioscience) adjusted to achieve the desired final concentration of collagen. The pH value of the reference peptide samples was adjusted to match the pH of the final peptide-collagen complex in order to facilitate NMR spectral comparison. The peptide-collagen solutions were also subjected to gelation under magnetic field guidance followed by the measurement of fibril alignment (Ma 2008) as a semi-quantitative indication of peptide-collagen binding. Deuterium coupling constants measuring the degree of collagen fibril alignment were reduced by more than 1.0 Hz for MH2-wZIP4, by less than 0.5 Hz for MH2-wZIP6 and MH2-wZIP5, which parallel those observed for trpzip4, trpzip6, trpzip5 and the gb1 peptide (see Example 4). As a comparison, a solution of rat collagen at a concentration of 1.8 mg/ml in 200 mM Tris-Cl/200 mM NaCl at pH 7.6 formed a partially-aligned hydrogel with a deuterium coupling constant (Ma, 2008) of 2.5 Hz, while a solution of rat collagen at a concentration of 3 mg/ml in PBS (137 mM NaCl/2.68 mM KCl/10.1 mM Na2HPO4/1.76 mM KH2PO4) supplemented with Na2HPO4 to achieve a final concentration of 50 mM at pH 7.4 formed a partially-aligned hydrogel with a deuterium coupling constant of 4.8 Hz. A solution of human collagen at a concentration of 2.23 mg/ml in PBS supplemented with Na2HPO4 with a final concentration of 50 mM at pH 7.4 formed a partially-aligned hydrogel with a deuterium coupling constant of 1.3 Hz.

The target in assay [2] is T1, rat-tail collagen type I (rat, UniProt P02454 152-1207; P02466 86-1125).
T1 construct: also called type-I collagen; unpolymerized collagen
T1 sequence (P02454 152-1207 limits assumed, chain 1 of 2): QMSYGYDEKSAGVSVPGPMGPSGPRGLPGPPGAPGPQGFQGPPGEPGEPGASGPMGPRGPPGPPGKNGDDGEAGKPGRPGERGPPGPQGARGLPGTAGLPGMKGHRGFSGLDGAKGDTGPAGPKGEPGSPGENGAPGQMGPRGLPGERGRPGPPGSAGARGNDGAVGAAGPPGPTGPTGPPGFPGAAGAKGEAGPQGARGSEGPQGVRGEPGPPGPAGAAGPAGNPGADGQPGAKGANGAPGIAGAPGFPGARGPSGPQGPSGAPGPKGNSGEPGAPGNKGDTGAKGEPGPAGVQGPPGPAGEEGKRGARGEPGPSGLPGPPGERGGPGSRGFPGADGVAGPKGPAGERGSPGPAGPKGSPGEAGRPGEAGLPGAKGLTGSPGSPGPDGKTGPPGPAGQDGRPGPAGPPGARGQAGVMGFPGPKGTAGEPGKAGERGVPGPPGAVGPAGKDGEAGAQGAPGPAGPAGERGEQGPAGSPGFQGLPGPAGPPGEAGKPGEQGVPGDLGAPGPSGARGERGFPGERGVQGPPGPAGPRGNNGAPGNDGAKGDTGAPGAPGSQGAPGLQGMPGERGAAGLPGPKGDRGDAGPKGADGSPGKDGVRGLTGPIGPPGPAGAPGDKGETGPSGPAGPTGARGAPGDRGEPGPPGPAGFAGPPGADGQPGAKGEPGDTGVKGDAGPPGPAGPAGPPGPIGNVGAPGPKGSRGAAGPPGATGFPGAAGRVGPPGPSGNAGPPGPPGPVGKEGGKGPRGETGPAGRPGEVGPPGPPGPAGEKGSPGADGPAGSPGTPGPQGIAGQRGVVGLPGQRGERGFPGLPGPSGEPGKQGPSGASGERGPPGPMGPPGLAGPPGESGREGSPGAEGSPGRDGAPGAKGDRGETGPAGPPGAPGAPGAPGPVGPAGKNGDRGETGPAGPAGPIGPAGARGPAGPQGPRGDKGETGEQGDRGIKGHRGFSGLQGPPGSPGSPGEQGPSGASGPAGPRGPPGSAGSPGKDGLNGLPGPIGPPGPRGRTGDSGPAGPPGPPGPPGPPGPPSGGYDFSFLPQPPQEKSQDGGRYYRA
T1 sequence (P02466 86-1125 limits assumed, chain 2 of 2): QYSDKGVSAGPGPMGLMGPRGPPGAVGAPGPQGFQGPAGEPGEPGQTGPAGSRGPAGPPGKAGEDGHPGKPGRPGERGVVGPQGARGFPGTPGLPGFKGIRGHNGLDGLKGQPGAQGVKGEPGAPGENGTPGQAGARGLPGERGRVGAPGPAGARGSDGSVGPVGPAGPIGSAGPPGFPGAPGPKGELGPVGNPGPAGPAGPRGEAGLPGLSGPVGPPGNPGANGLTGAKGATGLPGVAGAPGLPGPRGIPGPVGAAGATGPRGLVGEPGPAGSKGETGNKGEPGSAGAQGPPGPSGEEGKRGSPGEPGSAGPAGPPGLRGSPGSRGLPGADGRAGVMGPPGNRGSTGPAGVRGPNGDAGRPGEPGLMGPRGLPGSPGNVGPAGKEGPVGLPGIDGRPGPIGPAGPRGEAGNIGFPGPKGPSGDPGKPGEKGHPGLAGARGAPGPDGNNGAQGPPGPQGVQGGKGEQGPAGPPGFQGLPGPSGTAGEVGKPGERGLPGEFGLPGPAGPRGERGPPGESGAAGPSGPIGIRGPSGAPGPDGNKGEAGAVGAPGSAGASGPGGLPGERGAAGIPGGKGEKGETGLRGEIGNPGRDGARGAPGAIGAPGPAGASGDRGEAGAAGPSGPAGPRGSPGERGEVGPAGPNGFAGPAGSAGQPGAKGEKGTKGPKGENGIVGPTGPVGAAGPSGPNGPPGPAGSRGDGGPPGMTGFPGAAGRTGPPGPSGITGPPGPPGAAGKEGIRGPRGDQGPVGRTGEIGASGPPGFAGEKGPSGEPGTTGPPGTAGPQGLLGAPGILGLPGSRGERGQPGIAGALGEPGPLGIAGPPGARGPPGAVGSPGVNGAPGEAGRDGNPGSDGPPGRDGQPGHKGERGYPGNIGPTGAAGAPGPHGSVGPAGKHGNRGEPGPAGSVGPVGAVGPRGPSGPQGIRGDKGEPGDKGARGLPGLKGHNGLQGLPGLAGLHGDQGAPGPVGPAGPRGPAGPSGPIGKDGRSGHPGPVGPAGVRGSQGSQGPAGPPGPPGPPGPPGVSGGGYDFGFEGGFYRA
The experiment in a line: proton NMR, free against with collagen.

Sequence of rat-tail collagen type I (Rattus norvegicus, UniProt P02454+P02466) (P02454 152-1207 limits assumed): as the sequence (P02454 152-1207 limits assumed, chain 1 of 2) above
Sequence of rat-tail collagen type I (Rattus norvegicus, UniProt P02454+P02466) (P02466 86-1125 limits assumed): as the sequence (P02466 86-1125 limits assumed, chain 2 of 2) above

With “KKWTWNPATGKWTWQE (KKWTWNPATGKWTWQE-NH2) [HP5W4, reference compound]”, the “response to / binding of collagen (NMR spectral perturbations)” value (from here on “response to / binding of collagen”) with rat-tail collagen type I [1] is listed as “CBLH peptides”.

On to TWTWNGTNWTRN (CBLH peptide - v4-gp160), for which the “response to / binding of collagen” value with rat-tail collagen type I [1] is recorded as “responsive to the presence of collagen”.

With “GEWTWDDA (MH2-wZIP4-F2 - does not bind collagen)”, in the assay with rat-tail collagen type I [1], the “response to / binding of collagen” value is recorded as “lack of binding with collagen”.

As for “GEWTWDDATKTWTWTEGDFEEIPEEYL (MH2-wZIP4-F3 - molecule of Formula (I))”, the “response to / binding of collagen” value with rat-tail collagen type I [1] is “responds fully to collagen”.

Regarding “acetyl-STWTWNGTNWTRNDGGK (Ac-STWTWNGTNWTRNDGGK)”, in the assay with rat-tail collagen type I [1], the “NMR perturbations after collagen gelation (polymerization); reversibility of collagen binding” value (from here on “NMR perturbations … of collagen binding”) is “certain degree of reversibility” and the “response to / binding of collagen” value is listed as “bind to type-I collagen”.

“IRFTDGGSWTWEGNKWTWKGGDFEEIPEEYLQ (MH2-wZIP1GG - molecule of Formula (I))”: the “response to / binding of collagen” value with rat-tail collagen type I [1] was “responds similarly to collagen binding”.

As to “TWTWNGSAWTWN (CBLH peptide - v4-gp120) [reference compound]”, the “response to / binding of collagen” value with rat-tail collagen type I [1] is reported as “respond to collagen”.

For the molecule “IRFTDGEWTWDDA (MH2-wZIP4-F1 - does not bind collagen)”, the “response to / binding of collagen” value in the assay with rat-tail collagen type I [1] is listed as “does not respond to collagen binding”.

“KEWTWNPATGKWTRTE (KEWTWNPATGKWTRTE-NH2) [CBLH4]”: in the assay with rat-tail collagen type I [1], the “NMR perturbations … of collagen binding” value was “certain degree of reversibility” and the “response to / binding of collagen” value is on record as “almost identical collagen-binding characteristics”.

Consider “GEWTYNPATGKWTWTE (GEWTYNPATGKWTWTE-NH2) [CBLH1]”, for which, in the assay with rat-tail collagen type I [1], the “NMR perturbations … of collagen binding” value is “certain degree of reversibility” and the “response to / binding of collagen” value is reported as “almost identical collagen-binding characteristics”.

Regarding “GEWVWDDATKTWHWTE (GEWVWDDATKTWHWTE-NH2) [trpzip8, reference compound]”, the “response to / binding of collagen” value with rat-tail collagen type I [1] was “CBLH peptides”.

Regarding “TWRWNGSTAWTWS (CBLH peptide - pp-D7EUT8)”, the “response to / binding of collagen” value with rat-tail collagen type I [1] was “some proton NMR perturbations are observed”.

With “SWTYEGNKYTWK (SWTYEGNKYTWK-NH2) [Y4Y9-trpzip1, reference compound]”, the “response to / binding of collagen” value in the assay with rat-tail collagen type I [1] was “retain the collagne-binding capacity”.

Regarding “SWTYEGNKWTWK (SWTYEGNKWTWK-NH2) [Y4-trpzip1, reference compound]”, the “response to / binding of collagen” value in the assay with rat-tail collagen type I [1] was “retain the collagne-binding capacity”.

Turning to “KTWNPATGKWTE (HP7 - does not bind collagen) [reference compound]”, the “response to / binding of collagen” value with rat-tail collagen type I [1] is reported as “does not respond to the addition of collagen”.

In the case of “SWTVENGKVTWK (W2W11-trpzip2 - does not bind collagen) [reference compound]”, the “response to / binding of collagen” value with rat-tail collagen type I [1] is listed as “loses the collagen-binding capacity”.

For the molecule “SWTWEGNKWTWK (SWTWEGNKWTWK-NH2) [trpzip1, reference compound]”, in the assay with rat-tail collagen type I [1], the “response to / binding of collagen” value was “respond to collagen”.

“SWTYENGKYTWK (SWTYENGKYTWK-NH2) [WYYW-trpzip2, reference compound]”: the “response to / binding of collagen” value in the assay with rat-tail collagen type I [1] is on record as “retains a significant capacity for binding collagen”.

With “MH2-wZIP6: bivalent thrombin inhibitor containing the trpzip6 sequence (WO/2012/142696) (GEWTWDDATKTWTVTE; also: bivalent thrombin inhibitor, other parts, small tags and cut ends not in chain)”, in the assay with rat-tail collagen type I [1], the “NMR perturbations … of collagen binding” value is “reduced degree of proton NMR signal perturbations” and the “response to / binding of collagen” value is listed as “varying degrees of entrapment”.

In the case of “acetyl-STWTWNGSAWTWNEGGK (Ac-STWTWNGSAWTWNEGGK)”, in the assay with rat-tail collagen type I [1], the “NMR perturbations … of collagen binding” value is listed as “essentially irreversible” and the “response to / binding of collagen” value was “bind to type-I collagen”.

Regarding “GEWTWNPATGKWTRTE (GEWTWNPATGKWTRTE-NH2) [CBLH2]”, in the assay with rat-tail collagen type I [1], the “NMR perturbations … of collagen binding” value is “certain degree of reversibility” and the “response to / binding of collagen” value is reported as “almost identical collagen-binding characteristics”.

On to KEWTYNPATGKWTWTE [CBLH3], for which, in the assay with rat-tail collagen type I [1], the “NMR perturbations … of collagen binding” value is “certain degree of reversibility” and the “response to / binding of collagen” value is reported as “almost identical collagen-binding characteristics”.

With “SWTWENGKWTWK (SWTWENGKWTWK-NH2) [trpzip2, reference compound]”, the “response to / binding of collagen” value with rat-tail collagen type I [1] is recorded as “collagen-binding linear hairpin (CBLH) peptide”.

Consider “MH2-wZIP5: bivalent thrombin inhibitor containing the trpzip5 sequence (WO/2012/142696) (GEWTYDDATKTFTWTE; also: bivalent thrombin inhibitor, other parts, small tags and cut ends not in chain)”, for which, in the assay with rat-tail collagen type I [1], the “NMR perturbations … of collagen binding” value is listed as “reduced degree of proton NMR signal perturbations; also recorded: more pronounced loss of resonance perturbations as compared to MH2-wZIP6” and the “response to / binding of collagen” value is reported as “varying degrees of entrapment”.

Regarding SWTVENGKVTWK [W2W11-trpzip2], the binding result with rat-tail collagen type I [2] is given as “no binding”.

With GEWTYDDATKTFTVTE-NH2 (also called gb1 peptide; gb1-NH2) [gb1], in the assay with rat-tail collagen type I [2], the binding result was “no binding”.

B1: IRFTDGEWTWDDATKTWTWTE-GGS-VHpro10 (protein)
chain: IRFTDGEWTWDDATKTWTWTEGGSDVQLQASGGGLVQAGGSLRLTCAASGRTFDRYGWFRQAPGKEREFVASIGTRLHYADSVKGRFTISRDNAKSTAFLEMNSLKPEDTAVYYCAAAESTRNWYYKMSNDYDYWGQGTQVTVSSLEHHHHHH
modifications: WZ4-GGS-VHpro10 - molecule of Formula (I)
notes: trpzip4-VH conjugate, VHpro10 is a prothrombin-specific antibody VHH fragment
As to B1, the “NMR perturbations / release after collagen degradation by a collagenase” value in the assay with rat-tail collagen type I [1] (collagenase treatment) is given as “gradually came into view while the collagen gel dissembles in the presence of a collagenase”.

For IRFTDGEWTWDDA (also called P4233) [MH2-wZIP4-F1], the binding result in the assay with rat-tail collagen type I [2] is reported as “no binding”.

For the molecule GEWTWDDA (also called P4236) [MH2-wZIP4-F2], in the assay with rat-tail collagen type I [2], the binding result is given as “no binding”.

Consider KTWNPATGKWTE [HP7], for which the binding result with rat-tail collagen type I [2] was “no binding”.
